B1: Hairpin Ribozyme (parent)
chain: GUCCUCUUUCACGUGCGCGUGAAAGAGAGAAGUGAACCAGAGAAACACACGUUGUGGUAUAUUACCUGGUA

This is an account of results in the RNAGym collection of RNA variant scans (doi:10.7554/elife.80360).

In the data set the parent is B1. As to the kind of experiment: self-cleavage, relative activity (ratio to wild type); higher = more cleavage; co-transcriptional.
A22C A49C: the self-cleavage is 0.264.
The figure for C10G A49C is 0.198; for G25U U33C it is 0.145.
The figure for A22G C48A is 0.16.
The figure for C37U A44U is 0.173; for C38A U60A it is 0.0853; for G21U A24U it is 0.78.
Consider U7C C12G, for which the self-cleavage was determined as 0.758.
Turning to A44U G54U, the self-cleavage worked out at 0.0855.
With U2G G68U, the self-cleavage was determined as 0.2.
Regarding C6G U62A, the self-cleavage amounted to 0.0667.
With C38G A59G the figure was 0.162; with G19A U55G, 0.216; with C37U C66U, 0.264.
The figure for A61G U70C is 0.146; for C3A G51C it is 0.615.
The figure for A24U G57C is 0.181; for U5A U9G it is 0.231; for U5A A36U it is 0.255.
Consider C6A A44U, for which the self-cleavage is 0.167.
With G17A G25C the figure was 0.552; with A24G A35U, 0.645; with C48G C65U, 0.166.
With G21A C38U the figure was 0.466.
For the variant G17A G19C, the self-cleavage was found to be 0.969.
With G1A A26U the figure was 0.11.
G32A G42C: the self-cleavage amounted to 0.124.
Take A36U C65U: the self-cleavage came to 0.113.
The figure for C18A A71C is 1.34; for C10U A11U it is 0.577; for U2A G15A it is 0.216.
The figure for U7C A31U is 0.112; for A45G U62G it is 0.12; for U8G U20A it is 0.353.
As for G51C U70G, the self-cleavage was found to be 0.704.
The figure for G15C A31U is 0.105; for A36C G57A it is 0.125; for G13A A30U it is 0.113.
With G1C U9A the figure was 0.117.
With G17A G68A the figure was 0.301.
G1U U67C: the self-cleavage was determined as 0.0702.
With C16A A24G, the self-cleavage turned out to be 0.763.
Consider G34C A44C, for which the self-cleavage stood at 0.116.
With A45G U58C the figure was 0.269; with A43U U70C, 0.159; with C4A U9A, 0.233.
The figure for U7G U55A is 0.225; for A36C A61G it is 0.148.
Consider A35U A39C, for which the self-cleavage worked out at 0.208.
Turning to C48A A61G, the self-cleavage turned out to be 0.151.
The figure for G29U U70G is 0.315.
The figure for G1A G32C is 0.318; for U7G G56A it is 0.151.
With C12U A26U the figure was 0.591; with U2G U14C, 0.277.
On to U5G C38G, for which the self-cleavage was 0.133.
The figure for U33A A47G is 0.0897; for A39G G69U it is 0.122.
With G19A U53A the figure was 0.919.
Regarding C18A G19C, the self-cleavage worked out at 0.802.
Consider A23G U63G, for which the self-cleavage stood at 0.338.
The figure for U9C C16A is 0.761; for G32A G34C it is 1.23.
The figure for G15C A41G is 1.04.
The figure for C10U A39G is 0.242; for U14G U55C it is 0.286; for C12G A28U it is 0.57.
Take C10U C48U: the self-cleavage turned out to be 0.209.
The figure for C66U U67C is 0.326; for A43C U53G it is 0.103.
In the case of U9A U67C, the self-cleavage amounted to 0.174.
Turning to C48G A64G, the self-cleavage was found to be 0.155.
With G17A A59G the figure was 0.205; with A59G G68U, 0.235.
For G15A A39U, the self-cleavage is 0.351.
With G27U U63C the figure was 0.0849.
The figure for C12A C66A is 0.259.
As to U9A G54U, the self-cleavage worked out at 0.39.
With A24C A45G the figure was 0.171.
The figure for C6A U63C is 0.191; for G1U G40U it is 0.111.
With U52G U70C the figure was 0.605.
Take A39G U55G: the self-cleavage is 0.12.
With A28C G42U the figure was 0.0852; with G25A A44G, 0.158; with C38U U62A, 0.128.
With A30C A44G the figure was 0.145; with A39U C50A, 0.139.
As to A30C G42U, the self-cleavage was 0.111.
As for A61U U70A, the self-cleavage was determined as 0.175.
With U5C A43C the figure was 0.193; with G17A A28C, 0.74.
The figure for C37U A49C is 0.0924; for C3G C4A it is 0.185.
With U53A U62G, the self-cleavage worked out at 0.146.
With A35C G42C, the self-cleavage amounted to 0.505.
The figure for G32C A61U is 0.0498.
With G15U G17A the figure was 1.05; with U62C U63G, 0.228.
The figure for A47G G56A is 0.103.
In the case of C10A U70A, the self-cleavage turned out to be 0.498.
The figure for C10U G25U is 0.509; for A24U A49G it is 0.533; for U20G G68C it is 0.162.
The figure for G15C G56A is 0.129; for G29A A45C it is 0.0675.
Turning to A35G A59U, the self-cleavage is 0.229.
The figure for U33G A35U is 0.16; for U8A U20C it is 0.928.
With G27C G56U the figure was 0.131.
With C50U U67G the figure was 0.181; with U2A G68A, 0.0992.
For the variant C12U U58C, the self-cleavage came to 1.
With G29A A47G the figure was 0.244; with A49U U58G, 0.15.
U20A G56A: the self-cleavage turned out to be 0.108.
With A28G G69U the figure was 0.331.
With C12A C18G, the self-cleavage came to 0.872.
The figure for U8A G42A is 0.129.
With G42U A59U the figure was 0.151.
Consider U9A C10A, for which the self-cleavage was 0.743.
The figure for C18U C66A is 0.25.
Take A11C A31C: the self-cleavage amounted to 0.116.
For the variant G32U U67A, the self-cleavage came to 0.171.
The figure for U9G G57U is 0.379.
The figure for G19A A36C is 0.511.
With U33C G42C the figure was 0.0894; with A11U C38G, 0.128; with U14C U60G, 0.727.
Turning to C16G A26U, the self-cleavage amounted to 0.293.
Take G56C U67A: the self-cleavage was found to be 0.205.
A47U A49C: the self-cleavage came out at 0.144.
The figure for U5G U63C is 0.116.
With G57A A59U the figure was 0.0919; with U7C G19U, 0.68; with U7C A28U, 0.514.
The figure for U52G C66U is 0.474; for G25U A71C it is 1.08.
With A47G U62C, the self-cleavage was 0.0615.
With U20G A59G the figure was 0.167; with U5A G69A, 0.0903; with C16G A23G, 0.751.
The figure for U8G G40C is 0.111; for G1C C3U it is 0.18; for A35C A43U it is 0.194.
The figure for U14C U58G is 0.545; for U52A U58A it is 0.818.
For the variant A43U A45U, the self-cleavage was found to be 0.164.
With A44G U63A, the self-cleavage came out at 0.207.
With U55C A64G the figure was 0.132.
With G40U A61G, the self-cleavage came to 0.186.
As for G32A C38A, the self-cleavage stood at 0.115.
Consider A11C C46A, for which the self-cleavage worked out at 0.142.
As for G17A C65A, the self-cleavage turned out to be 0.86.
With G17U A26C, the self-cleavage was determined as 0.682.
As for A23G A64C, the self-cleavage worked out at 0.2.
The figure for C4A U63A is 0.101; for A26C U62A it is 0.269.
With U33C G40C the figure was 0.0896; with A23G A31G, 0.416.
The figure for G19A A44U is 0.269.
In the case of G54C A64U, the self-cleavage amounted to 0.155.
With A22U C48A, the self-cleavage came to 0.16.
The figure for A28U C37A is 0.143; for G21A G27U it is 0.227; for G29A U67A it is 0.0562.
With U52C A59U the figure was 0.115.
